Source: the supplement of paper PMC7877785
± gives the uncertainty stated by the source.

Test: self-splicing fitness, log relative to wild type (ln ratio); higher = more splicing; Tetrahymena group I intron in knt gene, E. coli kanamycin selection, DiMSum; sequences stand for … in CUCUCU…GGAGGGAAAAGUUAUCAGGCAUGCACCUGGUAGCUAGUCUUUAAACCAAUAGAUUGCAUCGGUUUAAAAGGCAAGACCGUCAAAUUGCGGGAAAGGGGUCAACAGCCGUUCAGUACCAAGUCUCAGGGGAAACUUUGAGAUGGCCUUGCAAAGGGUAUGGUAAUAAGCUGACGGACAUGGUCCUAACCACGCAGCCAAGUCCUAAGUCAACAGAUCUUCUGUUGAUAUGGAUGCAGUUCACAGACUAAAUGUCGGUCGGGGAAGAUGUAUUCUUCUCAUAAGAUAUAGUCGGACCUCUCCUUAAUGGGAGCUAGCGGAUGAAGUGAUGCAACACUGGAGCCGCUGGGAACUAAUUUGUAUGCGAAAGUAUAUUGAUUAGUUUUGGAGUACUCGUGGUCG
Outline: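 Pooled colonies went to amplicon sequencing on an Illumina HiSeq 2500 after six replicate transformations. The plates were LB agar with 100 μg/mL carbenicillin, 50 μM IPTG and 0.2% rhamnose, with or without 25 μg/mL kanamycin, incubated overnight at 37°C or 30°C. The E. coli BL21(DE3) library had all eight P1ex-region intron nucleotides randomised, the intron placed in the knt kanamycin-resistance gene on pET-22b(+). DiMSum fitness is the error-weighted combination of replicate fold changes, kanamycin against none, normalised to wild type.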

CGACAGCAAUAUUACGCCUU
self-splicing fitness (ln) (30 °C): -2.4 ± 0.22 | self-splicing fitness (ln) (37 °C): -1.61 ± 0.23

CGACAGCAAUAUUACGCUGA
self-splicing fitness (ln) (30 °C): -3.49 ± 0.28 | self-splicing fitness (ln) (37 °C): -2.66 ± 0.28

CGACAGCAAUAUUACGCUGU
self-splicing fitness (ln) (30 °C): -3.04 ± 0.14 | self-splicing fitness (ln) (37 °C): -2.55 ± 0.15

CGACAGCAAUAUUACGGACC
self-splicing fitness (ln) (30 °C): -2.09 ± 0.083 | self-splicing fitness (ln) (37 °C): -0.0291 ± 0.11

CGACAGCAAUAUUACGGGAA
self-splicing fitness (ln) (30 °C): -3.44 ± 0.17 | self-splicing fitness (ln) (37 °C): -1.92 ± 0.099

CGACAGCAAUAUUACGGUGC
self-splicing fitness (ln) (30 °C): -3.61 ± 0.26 | self-splicing fitness (ln) (37 °C): -2.53 ± 0.16

CGACAGCAAUAUUACGUAAG
self-splicing fitness (ln) (30 °C): -0.425 ± 0.08 | self-splicing fitness (ln) (37 °C): 0.126 ± 0.095

CGACAGCAAUAUUACGUGGA
self-splicing fitness (ln) (30 °C): -3.38 ± 0.17 | self-splicing fitness (ln) (37 °C): -3.17 ± 0.18

CGACAGCAAUAUUACGUGUU
self-splicing fitness (ln) (30 °C): -2.38 ± 0.086 | self-splicing fitness (ln) (37 °C): -3.04 ± 0.17

CGAGAGCAAUAUUACGAAAA
self-splicing fitness (ln) (37 °C): -2.18 ± 0.37

CGAGAGCAAUAUUACGAAUC
self-splicing fitness (ln) (30 °C): -2.29 ± 0.27

CGAGAGCAAUAUUACGACAA
self-splicing fitness (ln) (30 °C): -1.65 ± 0.39

CGAGAGCAAUAUUACGACUA
self-splicing fitness (ln) (30 °C): -2.56 ± 0.46

CGAGAGCAAUAUUACGCAAC
self-splicing fitness (ln) (30 °C): -1.2 ± 0.34 | self-splicing fitness (ln) (37 °C): -2.34 ± 0.35

CGAGAGCAAUAUUACGCAGU
self-splicing fitness (ln) (30 °C): -1.96 ± 0.41 | self-splicing fitness (ln) (37 °C): -2.21 ± 0.47

CGAGAGCAAUAUUACGCCCA
self-splicing fitness (ln) (37 °C): -0.872 ± 0.36

CGAGAGCAAUAUUACGCCUA
self-splicing fitness (ln) (30 °C): -2.4 ± 0.36 | self-splicing fitness (ln) (37 °C): -0.235 ± 0.38

CGAGAGCAAUAUUACGCGUG
self-splicing fitness (ln) (30 °C): -1.48 ± 0.13 | self-splicing fitness (ln) (37 °C): -2.95 ± 0.23

CGAGAGCAAUAUUACGCUAC
self-splicing fitness (ln) (37 °C): -2.11 ± 0.4

CGAGAGCAAUAUUACGGACG
self-splicing fitness (ln) (30 °C): -1.25 ± 0.23 | self-splicing fitness (ln) (37 °C): -0.913 ± 0.42

CGAGAGCAAUAUUACGGAUU
self-splicing fitness (ln) (30 °C): -2.72 ± 0.39

CGAGAGCAAUAUUACGGCGC
self-splicing fitness (ln) (30 °C): -2.76 ± 0.21 | self-splicing fitness (ln) (37 °C): -1.62 ± 0.21

CGAGAGCAAUAUUACGGGCG
self-splicing fitness (ln) (30 °C): -2.3 ± 0.14 | self-splicing fitness (ln) (37 °C): -1.39 ± 0.18

CGAGAGCAAUAUUACGGGUC
self-splicing fitness (ln) (37 °C): -0.826 ± 0.23

CGAGAGCAAUAUUACGUAGA
self-splicing fitness (ln) (30 °C): -1.62 ± 0.2 | self-splicing fitness (ln) (37 °C): -1.68 ± 0.3

CGAGAGCAAUAUUACGUCCU
self-splicing fitness (ln) (30 °C): -2.98 ± 0.39

CGAGAGCAAUAUUACGUUAG
self-splicing fitness (ln) (30 °C): -4.23 ± 0.36 | self-splicing fitness (ln) (37 °C): -2.24 ± 0.29

CGAGAGCAAUAUUACGUUUU
self-splicing fitness (ln) (30 °C): -3.09 ± 0.24 | self-splicing fitness (ln) (37 °C): -2.79 ± 0.25

CGAUAGCAAUAUUACGAAAG
self-splicing fitness (ln) (30 °C): -0.907 ± 0.089 | self-splicing fitness (ln) (37 °C): -0.699 ± 0.12

CGAUAGCAAUAUUACGAUAC
self-splicing fitness (ln) (37 °C): -2.88 ± 0.41

CGAUAGCAAUAUUACGCCAC
self-splicing fitness (ln) (30 °C): -2.44 ± 0.44 | self-splicing fitness (ln) (37 °C): -0.944 ± 0.43

CGAUAGCAAUAUUACGCCCG
self-splicing fitness (ln) (30 °C): -1.39 ± 0.18 | self-splicing fitness (ln) (37 °C): -1.44 ± 0.25

CGAUAGCAAUAUUACGCCGG
self-splicing fitness (ln) (30 °C): -0.546 ± 0.11 | self-splicing fitness (ln) (37 °C): -0.0292 ± 0.14

CGAUAGCAAUAUUACGCCUA
self-splicing fitness (ln) (30 °C): -2.11 ± 0.22 | self-splicing fitness (ln) (37 °C): -1.38 ± 0.18

CGAUAGCAAUAUUACGCGCA
self-splicing fitness (ln) (30 °C): -0.97 ± 0.12 | self-splicing fitness (ln) (37 °C): -0.529 ± 0.12

CGAUAGCAAUAUUACGGAAA
self-splicing fitness (ln) (30 °C): -3.34 ± 0.24 | self-splicing fitness (ln) (37 °C): -1.53 ± 0.21

CGAUAGCAAUAUUACGGACA
self-splicing fitness (ln) (30 °C): -2.4 ± 0.28 | self-splicing fitness (ln) (37 °C): -0.977 ± 0.16

CGAUAGCAAUAUUACGGCAA
self-splicing fitness (ln) (30 °C): -2.65 ± 0.27 | self-splicing fitness (ln) (37 °C): -1.79 ± 0.22

CGAUAGCAAUAUUACGGGGC
self-splicing fitness (ln) (30 °C): -3.2 ± 0.35 | self-splicing fitness (ln) (37 °C): -2.56 ± 0.39

CGAUAGCAAUAUUACGGGUU
self-splicing fitness (ln) (30 °C): -3.84 ± 0.21 | self-splicing fitness (ln) (37 °C): -3.04 ± 0.24

CGAUAGCAAUAUUACGUAAC
self-splicing fitness (ln) (30 °C): -2.84 ± 0.17 | self-splicing fitness (ln) (37 °C): -3.84 ± 0.46

CGAUAGCAAUAUUACGUAAG
self-splicing fitness (ln) (30 °C): -0.163 ± 0.066 | self-splicing fitness (ln) (37 °C): 0.259 ± 0.082

CGAUAGCAAUAUUACGUCCA
self-splicing fitness (ln) (30 °C): -1.86 ± 0.15 | self-splicing fitness (ln) (37 °C): -0.237 ± 0.16

CGAUAGCAAUAUUACGUCGA
self-splicing fitness (ln) (30 °C): -3.77 ± 0.25 | self-splicing fitness (ln) (37 °C): -1.15 ± 0.12

CGAUAGCAAUAUUACGUCGC
self-splicing fitness (ln) (30 °C): -3 ± 0.15 | self-splicing fitness (ln) (37 °C): -2.79 ± 0.21

CGAUAGCAAUAUUACGUCUG
self-splicing fitness (ln) (30 °C): 0.295 ± 0.061 | self-splicing fitness (ln) (37 °C): 0.0438 ± 0.072

CGAUAGCAAUAUUACGUGGA
self-splicing fitness (ln) (30 °C): -1.9 ± 0.24 | self-splicing fitness (ln) (37 °C): -2.62 ± 0.31

CGAUAGCAAUAUUACGUGUG
self-splicing fitness (ln) (30 °C): -0.978 ± 0.057 | self-splicing fitness (ln) (37 °C): -0.336 ± 0.07

CGAUAGCAAUAUUACGUUGA
self-splicing fitness (ln) (30 °C): -2.74 ± 0.18 | self-splicing fitness (ln) (37 °C): -1.3 ± 0.14

CGAUAGCAAUAUUACGUUGG
self-splicing fitness (ln) (30 °C): -1.62 ± 0.091 | self-splicing fitness (ln) (37 °C): -0.0971 ± 0.086

CGCAAGCAAUAUUACGAAAA
self-splicing fitness (ln) (30 °C): -2.47 ± 0.38 | self-splicing fitness (ln) (37 °C): -2.96 ± 0.4
